Data set [1] concerns T1, SaMhqR V91A V91A (Staphylococcus aureus COL), ORF:0a4449b0.
T1 sequence: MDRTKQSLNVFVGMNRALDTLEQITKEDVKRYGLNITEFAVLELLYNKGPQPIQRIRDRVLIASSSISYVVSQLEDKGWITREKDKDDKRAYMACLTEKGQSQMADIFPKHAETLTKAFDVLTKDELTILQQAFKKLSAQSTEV
Put plainly: EMSA. The conditions noted are these: EMSA: 15 ng probe, 0.01-1.0 uM protein, 60 min; for MHQ tests protein diluted to 0.6 uM in 10 mM Tris-HCl pH 7.5 and treated with 0.5-100 mM MHQ for 30 min at …. For orientation: In EMSA bound probe runs differently from free probe, usually more slowly.

Data set [2] relates to T2, SaMhqR E43A,H111A E43A;H111A (Staphylococcus aureus COL), ORF:0a4449b0.
T2 sequence: T1 sequence with E43A, A91V, H111A
In words: EMSA. The settings on record: EMSA: 15 ng probe, 0.01-1.0 uM protein, 60 min; for MHQ tests protein diluted to 0.6 uM in 10 mM Tris-HCl pH 7.5 and treated with 0.5-100 mM MHQ for 30 min at ….

Data set [3] concerns T3, SaMhqR V70A V70A (Staphylococcus aureus COL), ORF:0a4449b0.
T3 sequence: T1 sequence with V70A, A91V
In words: EMSA. The conditions noted are these: EMSA: 15 ng probe, 0.01-1.0 uM protein, 60 min; for MHQ tests protein diluted to 0.6 uM in 10 mM Tris-HCl pH 7.5 and treated with 0.5-100 mM MHQ for 30 min at ….

For data set [4], the system named is T4, SaMhqR H111A H111A (Staphylococcus aureus COL), ORF:0a4449b0.
T4 sequence: T1 sequence with A91V, H111A
Put plainly: EMSA. The settings on record: EMSA: 15 ng probe, 0.01-1.0 uM protein, 60 min; for MHQ tests protein diluted to 0.6 uM in 10 mM Tris-HCl pH 7.5 and treated with 0.5-100 mM MHQ for 30 min at ….

The test system of data set [5] is T5, SaMhqR F39A F39A (Staphylococcus aureus COL), ORF:0a4449b0.
T5 sequence: T1 sequence with F39A, A91V
Put plainly: EMSA. The conditions noted are these: EMSA: 15 ng probe, 0.01-1.0 uM protein, 60 min; for MHQ tests protein diluted to 0.6 uM in 10 mM Tris-HCl pH 7.5 and treated with 0.5-100 mM MHQ for 30 min at ….

The test system of data set [6] is T6, SaMhqR WT (Staphylococcus aureus COL), ORF:0a4449b0.
T6 sequence: T1 sequence with A91V
Put plainly: EMSA. The conditions noted are these: EMSA: 15 ng probe, 0.01-1.0 uM protein, 60 min; for MHQ tests protein diluted to 0.6 uM in 10 mM Tris-HCl pH 7.5 and treated with 0.5-100 mM MHQ for 30 min at ….

Data set [7] has as its system T7, SaMhqR Y92A Y92A (Staphylococcus aureus COL), ORF:0a4449b0.
T7 sequence: T1 sequence with A91V, Y92A
Put plainly: EMSA. The conditions noted are these: EMSA: 15 ng probe, 0.01-1.0 uM protein, 60 min; for MHQ tests protein diluted to 0.6 uM in 10 mM Tris-HCl pH 7.5 and treated with 0.5-100 mM MHQ for 30 min at ….

Data set [8] has as its system T8, SaMhqR S64A S64A (Staphylococcus aureus COL), ORF:0a4449b0.
T8 sequence: T1 sequence with S64A, A91V
Put plainly: EMSA. The settings on record: EMSA: 15 ng probe, 0.01-1.0 uM protein, 60 min; for MHQ tests protein diluted to 0.6 uM in 10 mM Tris-HCl pH 7.5 and treated with 0.5-100 mM MHQ for 30 min at ….

The subject of data set [9] is T9, SaMhqR F11A F11A (Staphylococcus aureus COL), ORF:0a4449b0.
T9 sequence: T1 sequence with F11A, A91V
Put plainly: EMSA. The settings on record: EMSA: 15 ng probe, 0.01-1.0 uM protein, 60 min; for MHQ tests protein diluted to 0.6 uM in 10 mM Tris-HCl pH 7.5 and treated with 0.5-100 mM MHQ for 30 min at ….

In data set [10] the test system is T10, SaMhqR S68A S68A (Staphylococcus aureus COL), ORF:0a4449b0.
T10 sequence: T1 sequence with S68A, A91V
Put plainly: EMSA. The conditions noted are these: EMSA: 15 ng probe, 0.01-1.0 uM protein, 60 min; for MHQ tests protein diluted to 0.6 uM in 10 mM Tris-HCl pH 7.5 and treated with 0.5-100 mM MHQ for 30 min at ….

For data set [11], the system named is T11, SaMhqR E38A E38A (Staphylococcus aureus COL), ORF:0a4449b0.
T11 sequence: T1 sequence with E38A, A91V
In words: EMSA. The settings on record: EMSA: 15 ng probe, 0.01-1.0 uM protein, 60 min; for MHQ tests protein diluted to 0.6 uM in 10 mM Tris-HCl pH 7.5 and treated with 0.5-100 mM MHQ for 30 min at ….

Data set [12] has as its system T12, SaMhqR D88A D88A (Staphylococcus aureus COL), ORF:0a4449b0.
T12 sequence: T1 sequence with D88A, A91V
Put plainly: EMSA. The conditions noted are these: EMSA: 15 ng probe, 0.01-1.0 uM protein, 60 min; for MHQ tests protein diluted to 0.6 uM in 10 mM Tris-HCl pH 7.5 and treated with 0.5-100 mM MHQ for 30 min at ….

For data set [13], the system named is T13, SaMhqR S66A S66A (Staphylococcus aureus COL), ORF:0a4449b0.
T13 sequence: T1 sequence with S66A, A91V
In words: EMSA. The conditions noted are these: EMSA: 15 ng probe, 0.01-1.0 uM protein, 60 min; for MHQ tests protein diluted to 0.6 uM in 10 mM Tris-HCl pH 7.5 and treated with 0.5-100 mM MHQ for 30 min at ….

Data set [14] deals with T14, SaMhqR K89A K89A (Staphylococcus aureus COL), ORF:0a4449b0.
T14 sequence: T1 sequence with K89A, A91V
Put plainly: EMSA. The settings on record: EMSA: 15 ng probe, 0.01-1.0 uM protein, 60 min; for MHQ tests protein diluted to 0.6 uM in 10 mM Tris-HCl pH 7.5 and treated with 0.5-100 mM MHQ for 30 min at ….

For data set [15], the system named is T15, SaMhqR Y69A Y69A (Staphylococcus aureus COL), ORF:0a4449b0.
T15 sequence: T1 sequence with Y69A, A91V
In words: EMSA. The settings on record: EMSA: 15 ng probe, 0.01-1.0 uM protein, 60 min; for MHQ tests protein diluted to 0.6 uM in 10 mM Tris-HCl pH 7.5 and treated with 0.5-100 mM MHQ for 30 min at ….

Data set [16] concerns T16, SaMhqR S65A S65A (Staphylococcus aureus COL), ORF:0a4449b0.
T16 sequence: T1 sequence with S65A, A91V
Put plainly: EMSA. The settings on record: EMSA: 15 ng probe, 0.01-1.0 uM protein, 60 min; for MHQ tests protein diluted to 0.6 uM in 10 mM Tris-HCl pH 7.5 and treated with 0.5-100 mM MHQ for 30 min at ….

For data set [17], the system named is T17, SaMhqR Q54A Q54A (Staphylococcus aureus COL), ORF:0a4449b0.
T17 sequence: T1 sequence with Q54A, A91V
Put plainly: EMSA. The settings on record: EMSA: 15 ng probe, 0.01-1.0 uM protein, 60 min; for MHQ tests protein diluted to 0.6 uM in 10 mM Tris-HCl pH 7.5 and treated with 0.5-100 mM MHQ for 30 min at ….

Data set [18] deals with T18, SaMhqR R90A R90A (Staphylococcus aureus COL), ORF:0a4449b0.
T18 sequence: T1 sequence with R90A, A91V
Put plainly: EMSA. The settings on record: EMSA: 15 ng probe, 0.01-1.0 uM protein, 60 min; for MHQ tests protein diluted to 0.6 uM in 10 mM Tris-HCl pH 7.5 and treated with 0.5-100 mM MHQ for 30 min at ….

Data set [19] has as its system T19, SaMhqR A63E A63E (Staphylococcus aureus COL), ORF:0a4449b0.
T19 sequence: T1 sequence with A63E, A91V
Put plainly: EMSA. The conditions noted are these: EMSA: 15 ng probe, 0.01-1.0 uM protein, 60 min; for MHQ tests protein diluted to 0.6 uM in 10 mM Tris-HCl pH 7.5 and treated with 0.5-100 mM MHQ for 30 min at ….

The subject of data set [20] is T20, SaMhqR E43A E43A (Staphylococcus aureus COL), ORF:0a4449b0.
T20 sequence: T1 sequence with E43A, A91V
Put plainly: EMSA. The settings on record: EMSA: 15 ng probe, 0.01-1.0 uM protein, 60 min; for MHQ tests protein diluted to 0.6 uM in 10 mM Tris-HCl pH 7.5 and treated with 0.5-100 mM MHQ for 30 min at ….

The subject of data set [21] is T21, SaMhqR Q73A Q73A (Staphylococcus aureus COL), ORF:0a4449b0.
T21 sequence: T1 sequence with Q73A, A91V
Put plainly: EMSA. The conditions noted are these: EMSA: 15 ng probe, 0.01-1.0 uM protein, 60 min; for MHQ tests protein diluted to 0.6 uM in 10 mM Tris-HCl pH 7.5 and treated with 0.5-100 mM MHQ for 30 min at ….

The target in data set [22] is MarR-type repressor MhqR of Staphylococcus aureus (SaMhqR), wild type, C-terminally His-tagged (Staphylococcus aureus (COL)). Put plainly: SEC-MALS; Superdex 200 Increase 10/300, HEPES buffer (20 mM HEPES, 20 mM MgCl2, 200 mM NaCl, 20 mM KCl). (Size exclusion chromatography separates by hydrodynamic size, large species first.)

Positions count from the first letter of the chain named.

As for “ACATATCAACTCCTATCATGATTGATTATAGTATTTCCCTATTCTATTTTAACTTAAACGAAGTCAAAGGTGCATGACAGTCATGTGACGACATTGCCACATCTATGTAGTCGTTTTTATTAAGCACAGTTTGAAATGAAGATGAAAACACGTATCTTGACATTAAATCTATTCAGTTATATAATTTATCTCGAAATCGAAATAAAATAAAAAAGTTGGTGATCATATGGATCGAACG (double strand) [mhqRED promoter probe]”, the binding entry is given as “binds more weakly” in data set [1]; “no binding” in data set [2]; “binds more weakly” in data set [3]; “binds more weakly” in data set [4]; “binds more weakly” in data set [5]; “binds” in [6]. Further, the binding entry is given as “binds more weakly” in data set [7]; “binds” in data set [8]; “binds more weakly” in data set [9]; “binds more weakly” in [10]; “binds more weakly” in data set [11]; “binds more weakly” in data set [12]. Further, the binding result in [13], in [14], in data set [15], in data set [16], in [17] and in data set [18] was “binds more weakly” throughout. Besides, the values for the binding result in data set [19], in [20] and in [21] were “binds more weakly”, “binds” and “binds more weakly”, respectively.

Consider “MarR-type repressor MhqR of Staphylococcus aureus (SaMhqR), wild type, C-terminally His-tagged (natural protein)”, for which, in data set [22], the stoichiometry N (usually a count of units in the complex or per binding partner) stood at 2.

The values are drawn from PMC12893000, “Structural basis of quinone sensing by the MarR-type repressor MhqR in Staphylococcus aureus” (mBio, 2025).
